Measurements as given in US10975142B2, “Endotrophin neutralization and use thereof” (THE BOARD OF REGENTS OF THE UNIVERSITY OF TEXAS SYSTEM, priority 2013, dated 2021).
“Also recorded” adds a separate entry of the source.

B1: 10B6: rat anti-mouse endotrophin monoclonal antibody; light chain variable SEQ ID NO: 2, heavy chain variable SEQ ID NO: 4 (antibody, V domains shown)
VH: QVQLQQSGPELAKPGSSVKISCKASGYTFTSYEMHWIKQRPGQGLEWIGYIYPESGSTGYNEKFKGKATLTVDKSSPTAYMQLSSLTPDNSAVYFCTRGLRVLGYVMDVWGHGTSVTVSS
VL: DVQLTQSPSFLSASVGDRVTINCKASQNINKYLNWYQQKLGEAPKRLIYNTNNLQTGIPSRFSGSASGTDYTLTISSLHPEDFATYFCLQHSSLYTFGAGTKLELK

Assays:
PyMT mice [1] = assay: high dosage cisplatin in PyMT mice; format: in vivo, mouse; conditions: cisplatin 2.5 mg/kg, ip. twice a week
Method: (§1) FIGS. 20A-20C. Endotrophin overexpression confers cisplatin resistance in PyMT mice. FIG. 20A. 10-weeks-aged PyMT and PyMT/endotrophin (PyMT/ETP) mice were given high dosage of cisplatin (2.5 mg/kg, ip., 2 times/week). Tumor growth was determined by caliper measurements. Data represent mean±SD (n=7-10/group). ***p<0.001, PyMT/CIS vs. PyMT/ETP/CIS by 2-way ANOVA. FIGS. 20B-20C. A piece of tumors taken from PyMT (Ctrl-tumor) and PyMT/endotrophin (ETP^+-tumor) mice were implanted into isogenic wild-type hosts. Cisplatin (1 mg/kg, ip., 2 times/week) were injected at 3-weeks post implantation for tumor progression. Tumor volume was determined by caliper measurement. […] Data represent mean±SD (n=7-8/group). *p<0.05 vs. Ctrl-tumors by 2-way ANOVA. Representative images were taken at 70-days post implantation. Scale: 10 mm.

PyMT/endotrophin mice = assay: high dosage cisplatin in PyMT/endotrophin mice; format: in vivo, mouse; conditions: cisplatin 2.5 mg/kg, ip. twice a week
Method: as §1

endotrophin+-tumors = assay: allografts of tumor pieces (Ctrl-tumor, ETP+-tumor) in wild-type hosts, cisplatin; format: in vivo, mouse; conditions: cisplatin 1 mg/kg, ip. twice a week
Method: as §1

MS-1 cells = assay: in vitro angiogenesis assay (tubule formation on Matrigel); format: cell-based, mouse; conditions: 10B6 10 μg/well, 3 hours
Method: FIGS. 17A-17B. Endotrophin effects on endothelial cell migration. FIG. 17A. in vivo Matrigel bioassays were performed as described in FIG. 6J. Matrigel plugs were analyzed by H&E and immunostaining for CD31 (endothelial cell marker). Scale bars: 200 μm (H&E), and 50 μm (CD31). FIG. 17B. in vitro Angiogenesis assay. MS-1 cells (5×10^4 cells/well) were plated in triplicate on the matrigel coated 12-well plates. Tubule formation was assessed 3 hours after incubation with conditioned media derived from H293 or H293-endotrophin overexpressing cells in the presence or absence of 10B6 (10 μg/well). Scale bars: 500 μm.
A total 300 μl/well of growth factor reduced matrigel (BD biosciences) was plated into 12 well plates. MS-1 cells (5×10^4) were seeded and images were acquired 3-4 hours after incubation with the conditioned media indicated.

PyMT mice [2] = assay: 10B6 treatment of PyMT mice, tumor growth; format: in vivo; conditions: 10B6 200 μg/mouse i.p. twice weekly, 9 to 13 weeks of age, vs isotype control IgG
Method: FIGS. 8A-8I: 10B6 blocks ETP-mediated stromal expansion in vivo. (FIG. 8A) 10B6 (200 μg/mouse) was i.p. injected twice weekly into PyMT mice from 9 to 13 weeks of age. Tumor growth (mean±SEM; n=4-6 per group) was determined by weekly caliper measurements. *P<0.05, **P<0.01, ***P<0.001 vs. IgG control, 2-way ANOVA. (FIG. 8B) Primary mammary epithelial cancer cells were isolated from 12-week-old FP635/PyMT and FP635/PyMT/ETP mice and implanted into WT recipients with the same volume of Matrigel. For the 10B6 group, 10B6 was added in a Matrigel plug (10 μg/plug) admixed with ETP^+-cancer cells (i.e., ETP^+/10B6). A representative whole-body image was acquired 25 days after implantation using IVIS fluorescence scanner. Artificial color indicates fluorescence signal intensity accounts for tumor volume (AU). Quantitative results are represented as mean±SEM (n=3 per group). *P<0.05, unpaired t test. […] Quantified results in FIGS. 8D-8I are mean±SEM (multiple images, n=3 per group). *P<0.05, **P<0.01, unpaired t test. […]
Tumor onset was monitored twice weekly by palpation. Tumor sizes were measured with a digital caliper twice weekly and the volumes were calculated as […]. […] Metastatic tumor growth was determined by histological analysis with H&E stained lung tissues.

ETP+-cancer cells = assay: allograft of FP635/ETP+-cancer cells in Matrigel plug with or without 10B6; format: in vivo, mouse
Method: FIGS. 8A-8I: 10B6 blocks ETP-mediated stromal expansion in vivo. (FIG. 8A) 10B6 (200 μg/mouse) was i.p. injected twice weekly into PyMT mice from 9 to 13 weeks of age. Tumor growth (mean±SEM; n=4-6 per group) was determined by weekly caliper measurements. *P<0.05, **P<0.01, ***P<0.001 vs. IgG control, 2-way ANOVA. (FIG. 8B) Primary mammary epithelial cancer cells were isolated from 12-week-old FP635/PyMT and FP635/PyMT/ETP mice and implanted into WT recipients with the same volume of Matrigel. For the 10B6 group, 10B6 was added in a Matrigel plug (10 μg/plug) admixed with ETP^+-cancer cells (i.e., ETP^+/10B6). A representative whole-body image was acquired 25 days after implantation using IVIS fluorescence scanner. Artificial color indicates fluorescence signal intensity accounts for tumor volume (AU). Quantitative results are represented as mean±SEM (n=3 per group). *P<0.05, unpaired t test. (FIGS. 8C-8I) 6 weeks after implantation, tumor tissues were excised from Ctrl-, ETP^+-, and ETP^+/10B6-cancer cells allografted mice and stained for H&E (FIG. 8C), Masson's Trichrome C (FIG. 8D), α-SMA (FIG. 8E), FSP-1 (FIG. 8F), CD31 (FIG. 8G), F4/80 (FIG. 8H), and Ki67 (FIG. 8I). Quantified results in FIGS. 8D-8I are mean±SEM (multiple images, n=3 per group). *P<0.05, **P<0.01, unpaired t test. Scale bars: 50 μm. (FIG. 8J) Working model for ETP in mammary tumor progression.
Isolation of mammary epithelial cancer cells and implantation procedures were as previously described. Tumor growth was monitored once weekly beginning 2 weeks after implantation.

[3] = test system: diet induced obese (DIO) mice; assay: diet induced obese mice, hyperinsulinemic-euglycemic clamp; format: in vivo; conditions: 10B6 100 μg/mouse vs IgG
Method: FIGS. 24A-24D: Endotrophin neutralization improves the metabolic phenotype. FIG. 24A. Two cohorts of mice (n=8) were exposed to high fat diet for 45 days after weaning. At the indicated time points (arrowheads), mice were treated with anti-endotrophin monoclonal antibodies (100 μg/mouse) or equivalent amounts of non-immune antibody. Body weights were monitored. FIG. 24B. Glucose infusion rate and FIG. 24C. Suppression of hepatic glucose efflux was measured in a hyperinsulinemic euglycemic clamp. FIG. 24D. Table of parameters measured prior and during the clamp. Significant differences as indicated by unpaired student t-test.
To evaluate the therapeutic potential of endotrophin neutralizing monoclonal antibodies on metabolic perspectives, diet induced obese (DIO) mice were chronically treated with either IgG control or 10B6 (rat anti-mouse endotrophin monoclonal antibody) via intraperitoneal injection at 2 weeks after high-fat diet (HFD) challenge and maintained them on a HFD with antibody treatment for another 4 weeks. […] Strikingly, 10B6 treated DIO mice improved whole-body insulin sensitivity, as determined by the amount of glucose required to maintain euglycemia (FIG. 24B) and by the amount of suppression of hepatic glucose efflux (FIGS. 24C and D).

| Molecule | primary tumor growth of PyMT mice (PyMT mice [1]) | response of PyMT/endotrophin mice to cisplatin treatment (PyMT/endotrophin mice) | response of endotrophin+-tumors compared to control (Ctrl)-tumors (endotrophin+-tumors) | vasculature structure (tubule) formation induced by conditioned media from ETP-overexpressing HEK-293T cells (MS-1 cells) | tumor growth (PyMT mice [2]) | tumor regression (ETP+-cancer cells; 6 weeks after implantation) | ETP+-cancer cell growth (fluorescence imaging) (ETP+-cancer cells; 10B6 10 μg/plug) | ETP-mediated tumor stromal expansion (ETP+-cancer cells; H&E, 6 weeks after implantation) | ETP-mediated increase in fibrosis and stromal expansion (ETP+-cancer cells; Masson's Trichrome C, α-SMA, FSP-1, CD31, F4/80) | whole-body insulin sensitivity (glucose required to maintain euglycemia, suppression of hepatic glucose efflux) [3] |
| --- | --- | --- | --- | --- | --- | --- | --- | --- | --- | --- |
| N.N.[Cl][Pt][Cl] [cisplatin, cis-diammine-dichloro-platinum] | effectively curbed | resistant | more resistant; also recorded: increased cisplatin resistance |  |  |  |  |  |  |  |
| B1 |  |  |  | completely blocked | significantly attenuated | triggered tumor regression | effectively attenuated | inhibited | completely blocked | improved |
